B1: PCSK9A6-DNA (ssDNA)
DNA: CGAATCAGATTGGACCAGTTTCAACCTCTTCTGCCTTCTCCACGGCTCCTTCTGCGTTGTTCCGAGTCCAGATGTAGGTAG
modifications: no side-chains
B2: PCSK9A7-DNA (ssDNA)
DNA: CGAATCAGATTGGACCAGTCTTCCCTATTCCTCTACCGTTTGTTCTCTTACTTTCACCTTCTGGAGTCCAGATGTAGGTAG
modifications: no side-chains
B3: PCSK9A4-DNA (ssDNA)
DNA: CGAATCAGATTGGACCAGCCCCAATGCTTTTCGTTTCTATCACGTCTTTAGCGGTACCTATTCGAGTCCAGATGTAGGTAG
modifications: no side-chains
B4: PCSK9A5-DNA (ssDNA)
DNA: CGAATCAGATTGGACCAGCCACGTTACTGATTCTTCTACCGTTTTTGCCCCCGGCACCTTCTGGAGTCCAGATGTAGGTAG
modifications: no side-chains
B5: PCSK9A1-DNA (ssDNA)
DNA: CGAATCAGATTGGACCAGCCACTATATTCTCTCTCCTACCGTTTGCCTTTGCATCACCTTCTGGAGTCCAGATGTAGGTAG
modifications: no side-chains
B6: PCSK9A3-DNA (ssDNA)
DNA: CGAATCAGATTGGACCAGTCTCTACAACCTCTTTCATGTCTTTAGCACTACTTATCCTGATCAGAGTCCAGATGTAGGTAG
modifications: no side-chains
B7: PCSK9A2-DNA (ssDNA)
DNA: CGAATCAGATTGGACCAGCAACAATGATTCTTCTACCGTTTTTGCCCTCACCTTCTGCGCTGAGAGTCCAGATGTAGGTAG
modifications: no side-chains

These binders were tested against PCSK9 (UniProt Q8NBP7 31-692) (assay: bead retention).
PCSK9, sequence (Q8NBP7 31-692): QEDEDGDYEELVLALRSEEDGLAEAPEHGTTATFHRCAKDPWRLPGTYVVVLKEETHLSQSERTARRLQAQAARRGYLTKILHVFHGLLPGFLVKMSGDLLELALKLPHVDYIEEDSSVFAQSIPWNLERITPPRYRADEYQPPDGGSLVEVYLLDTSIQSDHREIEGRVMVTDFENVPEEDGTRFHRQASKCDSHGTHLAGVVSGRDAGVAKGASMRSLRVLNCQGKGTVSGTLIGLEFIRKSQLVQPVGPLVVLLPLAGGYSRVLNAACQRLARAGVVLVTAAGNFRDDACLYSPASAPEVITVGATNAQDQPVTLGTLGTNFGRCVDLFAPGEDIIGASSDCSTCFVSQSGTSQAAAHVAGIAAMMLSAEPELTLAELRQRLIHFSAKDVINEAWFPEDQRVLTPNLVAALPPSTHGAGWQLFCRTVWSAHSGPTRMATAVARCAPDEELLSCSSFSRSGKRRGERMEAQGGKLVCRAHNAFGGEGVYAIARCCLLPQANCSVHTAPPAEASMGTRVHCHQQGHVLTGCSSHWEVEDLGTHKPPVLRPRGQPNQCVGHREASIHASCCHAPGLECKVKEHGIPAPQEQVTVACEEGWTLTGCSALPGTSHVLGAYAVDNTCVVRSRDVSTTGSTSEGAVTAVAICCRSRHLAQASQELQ

Binding result, no binding:
B1
B2
B3
B4
B5
B6
B7
